In patent US20250369960A1, “PER- AND POLYFLUORINATED ALKYL COMPOUND (PFAS) BINDING PROTEINS AND USES THEREOF” (Allonnia, LLC, priority 2022, published 2025):

Assays:
[1] = Indirect ELISA on microplates coated with BSA-PFOA conjugate; type: binding; conditions: for binding affinity to BSA-PFOA: indirect ELISA, various antibody dilutions; for response to BSA-PFOA at 1:50,000 dilution: antibody dilution 1:50,000
Method: Polyclonal rabbit antibodies to PFOA were prepared according to methods well known in the art. E. Harlow & D. Lane, Antibodies: A Laboratory Manual (1988) (published by Cold Spring Harbor Press, Cold Spring Harbor, N.Y.). These polyclonal antibodies were tested for their binding affinity to PFOA (FIG. 1A). PFOA was conjugated to bovine serum albumin by methods well known in the art. G.T. Hermanson, Bioconjugate Techniques (Academic Press, 785 pp., 1995). S.S. Wong, Chemistry of Protein Conjugation and Cross-Linking (CRC Press, 340 pp., 1991); G.T. Hermanson et al., Immobilized Affinity Ligand Techniques (Academic Press, 450 pp., 1992). Microplates were treated with BSA-PFOA conjugate and incubated. After washing with buffer, blocking solution was added followed by varying dilutions of monoclonal antibodies (mABs). The plate was then further incubated. After washing again, anti-rabbit secondary antibodies were added. A color reaction was developed using tetramethyl benzidine (TMB), and the reaction was read at 450 nm.
The results were consistent over various antibody dilutions.

[2] = Competitive ELISA, specificity of binding to PFOA compared with octanoic acid; conditions: FIG. 5
Method: (§1) Microplates were treated with anti-PFOA mABs. After incubation, the wells were exposed to a biotin-PFOA conjugate and free PFOA compounds, which compete for a finite number of antibody recognition sites. Next, streptavidin-HRP conjugate was added, which binds to the biotin-PFOA molecules. The resultant color reaction was measured spectrophotometrically. P. Langer et al., 78 Proc. Nat'l Acad. Sci USA 6633-37 (1981); A. Forster et al., 13 Nucleic Acids Res. 745-61 (1985); L. Riley et al., 5 DNA 333-37 (1986); M.D. Savage et al., Avidin-Biotin Chemistry: A Handbook (Pierce Chemical Co., 467 pp., 1992). The amount of signal was inversely proportional to the concentration of free-PFOA provided. This approach determined the dynamic range of antibody detection.
Antibodies mAB3 and mAB5 were also tested for specificity of binding to PFOA as compared to known analogs, such as OA.

[3] = Waveguide interferometry, antibody coupled to waveguide surface; type: binding; conditions: groundwater from a contaminated site, approximately 7.5 ppb PFOA, compared with 2 ppb PFOA signal
Method: The device combines two very sensitive methods, waveguiding and interferometry, to form waveguide interferometry technology used in rapid low-level detection sensing applications. In optical interferometry, small changes in refractive index are measured along the pathway of an optical beam of light during its propagation. As the light propagates, it generates an optical electromagnetic field, a small fraction of which-known as the evanescent field-enables detection by interacting with the changes in refractive index occurring on the waveguide cover layer. […] As PFAS is introduced to the functionalized waveguide, PFAS binding to the antibody displaces the sample solution near the waveguide surface, changing the light beam's velocity. Simultaneously, an adjacent reference beam is left unperturbed and is optically combined with the sensing beam to measure the velocity change. This creates an interference pattern that shifts as the refractive index changes, producing a corresponding change in the relative phase measurement.
Binding of PFAS binding proteins to PFAS was tested using interferometry. Specifically, binding of anti-PFOA antibody mAB5 to PFOA was measured by comparing the interferometry signal for a 1% methanol PBS buffer containing either 0 ppb PFOA (negative control; FIG. 14A) or 2 ppb PFOA (test sample; FIG. 14B). […]

[4] = Competitive ELISA, conjugated PFOA versus free PFOA; type: binding; conditions: for lowest PFOA concentration detected: synthetic matrix under laboratory conditions
Method: as §1
Antibodies mAB3 and mAB5 were then tested for dose response to PFOA using the competitive ELISA described in FIG. 1B. The assay was performed using two carrier molecules: (1) biotin (small carrier), and (2) horse radish peroxidase (HRP; large carrier). […] Also observed was the dynamic response of the assay to 0.5 ppb (500 ppt) of PFOA.
A plasmid containing the sequence for antibody mAB3 was expressed in Expi293 cells, and the resulting antibody was purified using Protein A and gel filtration chromatography, as is well known in the art. This antibody was tested for its binding affinity to PFOA using the competitive ELISA described in FIG. 1B.

[5] = Surface plasmon resonance, antibody on CM5 sensor chip; type: binding; conditions: for SPR signal with PFOA: PFOA between 41 ppm and 41 ppb; for type of SPR binding interaction: instant association and dissociation curve
Excerpt: Surface plasmon resonance occurs when a directed light at a specific angle of incidence excites electrons in a thin metal sheet. As a result, the electrons travel parallel to the sheet. This is related to the refractive index of the material. Even a small change alters the response, allowing SPR to be used as a techniques for detection of physical interactions between analytes. […] In this example, the antibody is bound to a sensor chip that carries a matrix of carboxymethylated dextran covalently attached to a gold surface. In this example, the chip is a CM5 sensor chip.
mAb3 (FIG. 11) and mAB5 (FIG. 12) were tested for binding with different concentrations of PFOA ([…], 10 μM, 1 μM, 0.1 μM). The concentration of PFOA tested was between ˜41 ppm and 41 ppb.

[6] = Competitive ELISA, binding affinity to other PFAS compounds
Method: as §1
The mAB3 produced in vitro was also tested for its binding affinity to other PFAS compounds, including PFOS, PFHxS, and PFBA.

Row | Molecule | binding affinity to BSA-PFOA [1] | response to BSA-PFOA at 1:50,000 dilution [1] | lowest PFOA concentration detected [4] | SPR signal with PFOA [5] | type of SPR binding interaction [5] | further results
1 | mAB4: rabbit anti-PFOA monoclonal antibody, heavy chain variable SEQ ID NO: 18, light chain variable SEQ ID NO: 23 (antibody, listed as Oryctolagus cuniculus, V domains shown) VH: QEQLEESRGGLIKPTDTLTLTCTASGFSLSNYGINWVRQAPGEGLEWIGAIRGSGFIYYATWAKSRSTITRNTNLNTVTLKMTSLTAADTATYFCARRDGLYSAMDPWGPGTLVTVSS VL: DPVLTQTPSSTSAAVGGTVTISCQSSDSVYKNNYLAWFQQKPGQPPKVLIYHASKLASGVPSRFSGSGSGTQFTLTISGVQCDDAATYYCLGEYSDTHVFGGGTEVVVKG | no significant binding affinity | – | – | – | – | –
2 | mAB5: rabbit anti-PFOA monoclonal antibody, heavy chain variable SEQ ID NO: 19, light chain variable SEQ ID NO: 24 (antibody, listed as Oryctolagus cuniculus, V domains shown) VH: QSVKESEGGLFKPTDTLTLTCTASGFSLSSYGVIWVRQAPGKGLQWIGFINIYGTPSYASWAMGRSTITGNTNLNTVILKMTSLTVADTATYFCASSVGSDGYLYSSDIWGPGTLVTVSS VL: DPVLTQTPSSVSAAVGGTVTINCQASQSVYNNKCLAWYQQKPGQPPKLLIYGASTLASGVPSRFSGSGSGTQFTLTISDLECDDAATYYCAGGYYSEIHFGGGTEVVVKG | best binding affinity | negligible | 0.5 ppb | concentration dependent signal | steady-state interaction | response to PFOA versus OA [2]: 78 fold; interferometry signal in groundwater [3]: consistent and approximately proportional to the concentration of PFOA
3 | mAB2: rabbit anti-PFOA monoclonal antibody, heavy chain variable SEQ ID NO: 16, light chain variable SEQ ID NO: 21 (antibody, listed as Oryctolagus cuniculus, V domains shown) VH: QSVKESEGGLFKPTDNLTLTCAVSRFSLSSYGVSWVRQAPGNGLEWIGYIYTDGSAYYASWAKSRSTITRNTNLNTVTLKMTSLTAADTATYFCARHSSGWGIDYFNVWGPGTLVTVSS VL: AAVLTQTPSSVSAAVGGTVTINCQASQSVYNNNYLSWYQQKPGQPPKLLIYLASTLASGVPSRFSGSGSGTEFTLTISDLECDDGATYYCAGGVTSSDRPFGGGTEVVVKG | no significant binding affinity | – | – | – | – | –
4 | mAB1: rabbit anti-PFOA monoclonal antibody, heavy chain variable SEQ ID NO: 15, light chain variable SEQ ID NO: 20 (antibody, listed as Oryctolagus cuniculus, V domains shown) VH: QSVKESEGGLFKPTDTLTLTCTASGFSLSSYGVSWVRQAPGNGLEWIGSIEDGGSAYYASWAKSRSTITSNTNLNTVTLQMTSLTAADTATYFCGSLSIGSAYPGIWGPGTLVTVSS VL: AIVMTQTPSSKSVPVGDTVTIKCQASQSIGTRLAWFQQKPGQPPKRLIYSASTLASGVPSRFSGSGSGTQFTLTISDVVCDDAAAYYCGGYKSSSSDGIAFGGGTEVVVKG | no significant binding affinity | – | – | – | – | –
5 | mAB3: rabbit anti-PFOA monoclonal antibody, heavy chain variable SEQ ID NO: 17, light chain variable SEQ ID NO: 22 (antibody, listed as Oryctolagus cuniculus, V domains shown) VH: QSLEESEGGLFKPGGTLTLTCTVSGFSLNIYSISWVRQAPGKELEWIGTMSNVDATYYANWAKSRSTITRNINESTVTLKMPSLTVADTATYFCARYIYGAGYDIWGPGTLVTVSS VL: ADIVMTQTPASVEAAVGGTVTIKCQASQSISSWLSWYQQKPGQPPKLLIYKASTLASGVPSRFKGSGSGTEYTLTISGVQCADAATYYCQSVYYSSSTNYGNTFGGGTEVVVKG | best binding affinity | very depressed | 0.5 ppb | concentration dependent signal | steady-state interaction | affinity to OA as compared to PFOA [2]: six-fold lower; response to BSA-PFOA at 1:25,000 dilution compared with 1:5,000 ([1]; antibody dilution 1:25,000 vs 1:5,000): approximately four-fold lower; binding affinity to PFOA ([4]; antibody expressed in Expi293 cells, purified using Protein A and gel filtration chromatography): about 1 ppt; binding affinity to PFOA ([4]; antibody isolated from rabbit serum): about 500 ppt; binding to PFOS and other PFAS compounds in addition to PFOA ([6]; FIG. 9): can bind; binding affinity to PFOS as compared to PFOA ([6]; purified antibody produced in vitro): 99%
